Measurements taken from publication PMC6555819, “Comprehensive study of nuclear receptor DNA binding provides a revised framework for understanding receptor specificity”.
Residue numbers refer to the chain shown, from its start.

B1: NRC3_wobSeed34_DR1_T19A_o1 (dsDNA)
DNA 1: GCATCGAAAGGTCGAAGGAGAGTATACCCACCCGAAGCGATTGACAGCGTAGAATGAAGG
DNA 2: CCTTCATTCTACGCTGTCAATCGCTTCGGGTGGGTATACTCTCCTTCGACCTTTCGATGC
B2: NRC3_wobSeed34_DR1_G17A_o1 (dsDNA)
DNA 1: B1 DNA 1 with G17A, A19T
DNA 2: B1 DNA 2 with T42A, C44T
B3: NRC3_wobSeed112_DR4_G5T_o1 (dsDNA)
DNA 1: GCTATCCTAGGTCAGATCGGGCCAGTATACGCTATAGCGATTGACAGCGTAGAATGAAGG
DNA 2: CCTTCATTCTACGCTGTCAATCGCTATAGCGTATACTGGCCCGATCTGACCTAGGATAGC
B4: NRC3_wobSeed110_DR4_A9G_o1 (dsDNA)
DNA 1: GCTCTGCTGGGTCAACGATGGTCAGCTAATCTGCTAGCGATTGACAGCGTAGAATGAAGG
DNA 2: CCTTCATTCTACGCTGTCAATCGCTAGCAGATTAGCTGACCATCGTTGACCCAGCAGAGC
B5: NRC3_wobSeed38_DR1_A25C_o1 (dsDNA)
DNA 1: GCCCTGCTAGGTCAATGGTCAGCTCAAGCAGCTCGCGCGATTGACAGCGTAGAATGAAGG
DNA 2: CCTTCATTCTACGCTGTCAATCGCGCGAGCTGCTTGAGCTGACCATTGACCTAGCAGGGC
B6: NRC3_wobSeed76_DR3_A16T_o1 (dsDNA)
DNA 1: GCCCTACTGGGCCAATAAGGTCATTGATGCCGATAAGCGATTGACAGCGTAGAATGAAGG
DNA 2: CCTTCATTCTACGCTGTCAATCGCTTATCGGCATCAATGACCTTATTGGCCCAGTAGGGC
B7: NRC3_wobSeed75_DR3_A25C_o1 (dsDNA)
DNA 1: GCTCTCGGAGGACACGAAGGTCAGCGCTTTCCAGAGGCGATTGACAGCGTAGAATGAAGG
DNA 2: CCTTCATTCTACGCTGTCAATCGCCTCTGGAAAGCGCTGACCTTCGTGTCCTCCGAGAGC
B8: NRC3_wobSeed58_DR2_A7T_o1 (dsDNA)
DNA 1: GCATCGTAAGGTCGTGAGGTGAGTATACAGAAAGGCGCGATTGACAGCGTAGAATGAAGG
DNA 2: CCTTCATTCTACGCTGTCAATCGCGCCTTTCTGTATACTCACCTCACGACCTTACGATGC
B9: NRC3_wobSeed72_DR2_A9G_o1 (dsDNA)
DNA 1: GCTCGAGTGGGTTACGGGGGCATTCAGGGATGAAGAGCGATTGACAGCGTAGAATGAAGG
DNA 2: CCTTCATTCTACGCTGTCAATCGCTCTTCATCCCTGAATGCCCCCGTAACCCACTCGAGC
B10: NRC3_wobSeed72_DR2_C15G_o1 (dsDNA)
DNA 1: B9 DNA 1 with G9A, C15G
DNA 2: B9 DNA 2 with G46C, C52T
B11: NRC3_wobSeed39_DR1_G17A_o1 (dsDNA)
DNA 1: GCCGAACTAGGTCAAAAGACAGTGAAAGGCGACGTAGCGATTGACAGCGTAGAATGAAGG
DNA 2: CCTTCATTCTACGCTGTCAATCGCTACGTCGCCTTTCACTGTCTTTTGACCTAGTTCGGC
B12: NRC3_wobSeed64_DR2_C21T_o1 (dsDNA)
DNA 1: GCTAGCCTAGGTCATTGGGCTAGTATAGTACGCATCGCGATTGACAGCGTAGAATGAAGG
DNA 2: CCTTCATTCTACGCTGTCAATCGCGATGCGTACTATACTAGCCCAATGACCTAGGCTAGC
B13: NRC3_wobSeed3_DR0_A22G_o1 (dsDNA)
DNA 1: GCGCTCGGAGGACAAGGTCAGGGCTTTGTCCGTAGAGCGATTGACAGCGTAGAATGAAGG
DNA 2: CCTTCATTCTACGCTGTCAATCGCTCTACGGACAAAGCCCTGACCTTGTCCTCCGAGCGC

What follows are binders tested against RARg:RXRa (Homo sapiens, UniProt P13631;P19793 full;full) (assay: no ligand; PBM; 270 nM : 90 nM RXRa; PBS pH 7.4, 2% milk, 0.02% Triton X-100, 1 mM DTT, BSA, 0.4 mg/ml salmon testes DNA). Conditions: tags: His kept;His cleaved; copies: 1;1; label: surface-attached array probe.
RARg:RXRa, sequence (P13631 whole entry, chain 1 of 2): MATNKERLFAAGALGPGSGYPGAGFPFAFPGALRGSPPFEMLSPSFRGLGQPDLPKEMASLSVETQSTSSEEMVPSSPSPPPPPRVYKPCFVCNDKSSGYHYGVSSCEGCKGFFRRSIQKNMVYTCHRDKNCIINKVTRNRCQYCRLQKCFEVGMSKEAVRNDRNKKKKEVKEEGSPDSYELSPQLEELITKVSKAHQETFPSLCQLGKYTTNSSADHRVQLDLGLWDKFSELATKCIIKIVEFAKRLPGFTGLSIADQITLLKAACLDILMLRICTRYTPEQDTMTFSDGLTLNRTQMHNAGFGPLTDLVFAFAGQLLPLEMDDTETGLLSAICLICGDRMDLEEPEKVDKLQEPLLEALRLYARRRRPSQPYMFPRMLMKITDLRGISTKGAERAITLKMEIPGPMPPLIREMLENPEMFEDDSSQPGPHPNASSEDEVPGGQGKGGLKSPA
RARg:RXRa, sequence (P19793 whole entry, chain 2 of 2): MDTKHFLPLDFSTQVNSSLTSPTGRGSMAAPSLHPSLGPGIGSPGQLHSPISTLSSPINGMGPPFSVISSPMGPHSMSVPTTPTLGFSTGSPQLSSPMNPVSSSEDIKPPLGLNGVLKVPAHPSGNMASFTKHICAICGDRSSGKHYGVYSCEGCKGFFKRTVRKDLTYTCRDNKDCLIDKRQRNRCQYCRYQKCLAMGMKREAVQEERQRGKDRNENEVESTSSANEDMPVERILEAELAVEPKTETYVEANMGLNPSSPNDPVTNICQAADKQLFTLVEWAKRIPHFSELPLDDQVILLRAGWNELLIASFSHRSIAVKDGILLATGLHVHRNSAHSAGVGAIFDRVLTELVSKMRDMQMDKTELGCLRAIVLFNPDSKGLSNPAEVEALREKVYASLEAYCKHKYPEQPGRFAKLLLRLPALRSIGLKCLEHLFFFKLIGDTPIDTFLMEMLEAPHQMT
In short: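 Custom Agilent 4×180K protein-binding microarrays carried double-stranded probes, each with a 34-nt variable region. These regions held direct-repeat seeds, single-nucleotide variants, half-site ablations and random human genomic background sequences. Ligand-free nuclear receptor dimers were incubated on the arrays for 1 h, antibodies against each partner (one per run) detected binding, and scanned fluorescence was regression-normalized. Binding z-scores take the random background probes as reference.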

Q: B1 was tested. Which binding signal did it give?
A: Its binding signal is 3.65 PBM z-score against 500 random probes.

Q: With B2 as the binder, how does the binding signal read?
A: Its binding signal is 3.26 PBM z-score against 500 random probes.

Q: B3 was tested. Which binding signal did it give?
A: Its binding signal is 3.16 PBM z-score against 500 random probes.

Q: B4 was tested. Which binding signal did it give?
A: The binding signal was 3.45 PBM z-score against 500 random probes.

Q: B5 was tested. Which binding signal did it give?
A: The binding signal was 3.58 PBM z-score against 500 random probes.

Q: For B6, which binding signal is on record?
A: Its binding signal is 3.2 PBM z-score against 500 random probes.

Q: How did the binding signal turn out when B7 was run?
A: The binding signal was 3.49 PBM z-score against 500 random probes.

Q: How did the binding signal turn out when B8 was run?
A: The binding signal was 3.36 PBM z-score against 500 random probes.

Q: How did the binding signal turn out when B9 was run?
A: The binding signal was 3.31 PBM z-score against 500 random probes.

Q: How did the binding signal turn out when B10 was run?
A: The binding signal was 3.1 PBM z-score against 500 random probes.

Q: For B11, which binding signal is on record?
A: The binding signal was 3.41 PBM z-score against 500 random probes.

Q: With B12 as the binder, how does the binding signal read?
A: The binding signal was 3.53 PBM z-score against 500 random probes.

Q: With B13 as the binder, how does the binding signal read?
A: The binding signal was 3.61 PBM z-score against 500 random probes.
